Data as given in patent US10253089B2, “Matrix metalloproteinase cleavable protein polymers for cancer gene therapy” (The University of Utah Research Foundation, priority 2012, dated 2019).

Assays:
[1] = Dynamic mechanical analysis (DMA) of SELP hydrogels; format: physicochemical; settings: 12 wt % hydrogels
From the text: It was predicted that polymer structure would also play a large role in the mechanical properties of the hydrogels. Dynamic mechanical analysis (DMA) was used to examine hydrogels made from each of the SELP analogues, and as predicted, there was a strong dependence of the results on the silk and elastin content of the polymers, and the arrangement of the silk and elastin blocks. […] This is opposite the order observed in the swelling studies, which is to be expected assuming the crosslinking density decreases with increasing swelling and decreasing mechanical properties for analogous materials. The legend for the graph shown in FIG. 8 is as follows: triangles: SELP-47K, squares: SELP-815K, diamonds: SELP-415K. Highly controlled structure in SELPs allows fine-tuning of mechanical properties.
To gain further insight into the hydrogel pore structure, network properties were examined as a function of polymer sequence by small angle neutron scattering (SANS) techniques (FIG. 9). SANS allows the examination of microstructures in the range 1-100 nm through the analysis of elastic neutron scattering. […] The calculated correlation length (Table 3) depicts a trend in the observation that are in the order SELP-415K>SELP-815K>SELP-47K. […]

[2] = Small angle neutron scattering (SANS) of SELP hydrogels; format: physicochemical; settings: 12 wt %
From the text: To gain further insight into the hydrogel pore structure, network properties were examined as a function of polymer sequence by small angle neutron scattering (SANS) techniques (FIG. 9). SANS allows the examination of microstructures in the range 1-100 nm through the analysis of elastic neutron scattering. SANS analysis was used to examine the correlation between the observed macroscopic properties of SELPs (12% wt), such as equilibrium swelling and mechanical modulus, with the underlying network structure. […] SELP hydrogels conformed closely with a modified gel model of the general form I(Q)=AQ^b+(BQ^2ε^2)^2+C, which uses a power-law fit for the high q scattering combined with the Debye-Bueche model at low to intermediate Q (above Q=0.02 Å^−1). The combined Debye-Bueche/power law model provided a nearly complete fit over the full q-range of collected data. […] The calculated correlation length (Table 3) depicts a trend in the observation that are in the order SELP-415K>SELP-815K>SELP-47K. […] The silk blocks of SELP-415K are separated by elastin blocks twice the length as −47K, and as these cross-linking blocks move further apart, the elastin-like nature of the SELP becomes more pronounced and the storage modulus decreases. SELP-815K presents an interesting case where the silk blocks are doubled in length over SELP-47K while also having a long elastin block as in SELP415K.

B1: SELP815K: silk-elastin-like protein polymer, longer silk units, fifteen elastin units, lysine elastin unit; monomer repeated 6 times (SEQ ID NO. 21) (protein)
chain: MDPVVLQRRDWENPGVTQLNRLAAHPPFASDPMGAGSGAGAGSGAGAGSGVGVPGVGVPGVGVPGVGVPGKGVPGVGVPGVGVPGVGVPGVGVPGVGVPGVGVPGVGVPGVGVPGVGVPGVGVPGVGVPGAGAGSGAGAGSGAGAGSGAGAGSGAGAGSGAGAGAGSGAGAGSGAGAGSGVGVPGVGVPGVGVPGVGVPGKGVPGVGVPGVGVPGVGVPGVGVPGVGVPGVGVPGVGVPGVGVPGVGVPGVGVPGVGVPGAGAGSGAGAGSGAGAGSGAGAGSGAGAGSGAGAGAGSGAGAGSGAGAGSGVGVPGVGVPGVGVPGVGVPGKGVPGVGVPGVGVPGVGVPGVGVPGVGVPGVGVPGVGVPGVGVPGVGVPGVGVPGVGVPGAGAGSGAGAGSGAGAGSGAGAGSGAGAGSGAGAGAGSGAGAGSGAGAGSGVGVPGVGVPGVGVPGVGVPGKGVPGVGVPGVGVPGVGVPGVGVPGVGVPGVGVPGVGVPGVGVPGVGVPGVGVPGVGVPGAGAGSGAGAGSGAGAGSGAGAGSGAGAGSGAGAGAGSGAGAGSGAGAGSGVGVPGVGVPGVGVPGVGVPGKGVPGVGVPGVGVPGVGVPGVGVPGVGVPGVGVPGVGVPGVGVPGVGVPGVGVPGVGVPGAGAGSGAGAGSGAGAGSGAGAGSGAGAGSGAGAGAGSGAGAGSGAGAGSGVGVPGVGVPGVGVPGVGVPGKGVPGVGVPGVGVPGVGVPGVGVPGVGVPGVGVPGVGVPGVGVPGVGVPGVGVPGVGVPGAGAGSGAGAGSGAGAGSGAGAGSGAGAGSGAGAMDPGRYQDLRSHHHHHH
modifications: monomer repeated 6 times; Hybrid of Homo sapein and Bombyx mori
For B1, the storage modulus [1] was “falls between those of SELP47K and 415K”, the “Debye-Bueche mid-Q slope” value [2] was about −3 and the “Power-law low Q slope” value [2] was 3.26.
